Measured values: article PMC4508888

How the values were obtained:
Experiment in all cases: co-IP
[1] = target: EGFP-Myo1b (rat) (UniProt Q05096)
[2] = target: EGFP-Myo1b motor (rat)
[3] = target: EGFP-Myo1b-Tail (rat)
[4] = target: Flag-EphB2-KD (UniProt P54763)

Chain of Flag-EphB2 (P54763 19-986): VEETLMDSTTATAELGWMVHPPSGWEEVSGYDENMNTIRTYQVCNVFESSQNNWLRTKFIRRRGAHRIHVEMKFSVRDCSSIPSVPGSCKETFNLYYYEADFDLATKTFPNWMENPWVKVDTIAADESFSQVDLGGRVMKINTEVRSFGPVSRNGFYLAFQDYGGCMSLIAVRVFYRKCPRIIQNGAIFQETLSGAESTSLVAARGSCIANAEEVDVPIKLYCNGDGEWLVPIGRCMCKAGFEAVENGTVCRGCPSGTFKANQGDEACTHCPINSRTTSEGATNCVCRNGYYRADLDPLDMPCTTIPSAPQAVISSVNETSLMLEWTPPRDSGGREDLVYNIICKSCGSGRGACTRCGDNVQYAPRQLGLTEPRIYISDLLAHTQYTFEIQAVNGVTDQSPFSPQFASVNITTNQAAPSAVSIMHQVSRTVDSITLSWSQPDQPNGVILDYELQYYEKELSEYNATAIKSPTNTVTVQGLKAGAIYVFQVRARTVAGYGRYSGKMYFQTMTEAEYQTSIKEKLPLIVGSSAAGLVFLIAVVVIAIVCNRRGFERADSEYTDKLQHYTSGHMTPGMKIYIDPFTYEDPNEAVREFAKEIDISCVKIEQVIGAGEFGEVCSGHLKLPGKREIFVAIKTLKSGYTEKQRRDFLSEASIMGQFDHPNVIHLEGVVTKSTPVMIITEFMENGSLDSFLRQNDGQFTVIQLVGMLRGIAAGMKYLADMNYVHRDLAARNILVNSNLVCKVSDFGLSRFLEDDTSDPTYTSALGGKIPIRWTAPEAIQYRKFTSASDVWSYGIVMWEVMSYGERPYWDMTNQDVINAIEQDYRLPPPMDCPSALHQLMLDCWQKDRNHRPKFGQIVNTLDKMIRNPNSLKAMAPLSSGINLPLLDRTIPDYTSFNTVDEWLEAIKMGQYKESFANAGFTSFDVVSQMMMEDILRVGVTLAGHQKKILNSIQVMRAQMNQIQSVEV

Row | percent of Flag-EphB2 co-precipitated with EGFP-Myo1b after genistein treatment [1] [%] | percent of Flag-EphB2 pulled down against EGFP-Myo1b [2] [%] | fold of Flag-EphB2 pulled down against EGFP-Myo1b [3] [fold] | percent of EGFP-Myo1b co-precipitated against Flag-EphB2 [4] [%] | Molecule
1 | 29 | 50 | > 2 | – | Flag-EphB2 (from UniProt P54763 19-986) (receptor)
2 | – | – | – | 16 | EGFP-Myo1b (natural protein) MAKKEVKSSLLDNMIGVGDTVLLEPLNEETFIDNLKKRFDHNEIYTYIGSVVISVNPYRSLPIYSPEKVEDYRNRNFYELSPHIFALSDEAYRSLRDQDKDQCILITGESGAGKTEASKLVMSYVAAVCGKGAEVNQVKEQLLQSTPVLEAFGNAKTVRNDNSSRFGKYMDIEFDFKGDPLGGVISNYLLEKSRVVKQPRGERNFHVFYQLLSGASEELLHKLKLERDFSRYNYLSLDSAKVNGVDDAANFRTVRNAMQIVGFSDPEAESVLEVVAAVLKLGNIEFKPESRMNGLDESKIKDKNELKEICELTSIDQVVLERAFSFRTVEAKQEKVSTTLNVAQAYYARDALAKNLYSRLFSWLVNRINESIKAQTKVRKKVMGVLDIYGFEIFEDNSFEQFIINYCNEKLQQIFIELTLKEEQEEYIREDIEWTHIDYFNNAIICDLIENNTNGILAMLDEECLRPGTVTDETFLEKLNQVCATHQHFESRMSKCSRFLNDTTLPHSCFRIQHYAGKVLYQVEGFVDKNNDLLYRDLSQAMWKAGHALIKSLFPEGNPAKVNLKRPPTAGSQFKASVATLMKNLQTKNPNYIRCIKPNDKKAAHIFSESLVCHQIRYLGLLENVRVRRAGYAFRQAYEPCLERYKMLCKQTWPHWKGPARSGVEVLFNELEIPVEEYSFGRSKIFIRNPRTLFQLEDLRKQRLEDLATLIQKIYRGWKCRTHFLLMKRSQVVIAAWYRRYAQQKRYQQIKSSALVIQSYIRGWKARKILRELKHQKRCKEAATTIAAYWHGTQARKERRRLKDEARNKHAIAVIWAFWLGSKARRELKRLKEEARRKHAVAVIWAYWLGLKVRREYRKFFRANAGKKIYEFTLQRIVQKYLLEMKNKMPSLSPIDKNWPSRPYLFLDSTHKELKRIFHLWRCKKYRDQFTDQQKLIYEEKLEASELFKDKKALYPSSVGQPFQGAYLEINKNPKYKKLKDAIEEKIIIAEVVNKINRANGKSTSRIFLLTNNNLLLADQKSGQIKSEVPLVDVTKVSMSSQNDGFFAVHLKEGSEAASKGDFLFSSDHLIEMATKLYRTTLSQTKQKLNIEISDEFLVQFRQDKVCVKFIQGNQKNGSVPTCKRKNNRLLEVAVP
